Experiments:
HeLa Kyoto [1] = experiment: solubility in G1/S (NP-40 vs SDS abundance) (log2 ratio); higher = more soluble; details: cell cycle stage: G1/S
HeLa Kyoto [2] = experiment: melting temperature (median over replicates), in situ; higher = more thermally stable
HeLa Kyoto [3] = experiment: solubility change mitosis vs G1/S (difference of NP-40 vs SDS log2 ratios) (log2 ratio difference); higher = more soluble in mitosis
HeLa Kyoto [4] = experiment: thermal stability score vs G1/S (z-score of summed log2 fold changes over temperatures); higher = more thermally stable than in G1/S
[5] = cell cycle stage: early G1 (4.5 h after nocodazole release)
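For melting temperature (median over replicates), in situ in this document: HeLa Kyoto cells synchronized by double thymidine or nocodazole block, proteins quantified by TMT10plex mass spectrometry, three independent biological replicates.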
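For solubility change mitosis vs G1/S (difference of NP-40 vs SDS log2 ratios) in this document: synchronized HeLa Kyoto cells (double thymidine block for G1/S, nocodazole release for mitosis), protein amounts in NP-40 versus SDS lysates quantified by mass spectrometry, three biological replicates.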
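For solubility in G1/S (NP-40 vs SDS abundance) in this document: HeLa Kyoto cells arrested at G1/S by double thymidine block, proteins quantified by TMT10plex mass spectrometry in mild NP-40 versus SDS extracts, three biological replicates.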
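For thermal stability score vs G1/S (z-score of summed log2 fold changes over temperatures) in this document: synchronized HeLa Kyoto cells, proteins quantified by TMT10plex mass spectrometry, three biological replicates, mitosis taken 0.5 h after nocodazole release, G1/S directly after double thymidine block.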

Sequence | solubility in G1/S (log2) (HeLa Kyoto [1]) | melting temperature (HeLa Kyoto [2]; cell cycle stage: G1/S) | melting temperature (HeLa Kyoto [2]; cell cycle stage: mitosis) | solubility change mitosis (log2) (HeLa Kyoto [3]) | thermal stability score (HeLa Kyoto [4]; [5]) | thermal stability score (HeLa Kyoto [4]; cell cycle stage: mitosis)
MFSFEGDFKTRPKVSLGGASRKEEKASLLHRTQEERRKREEERRRLKNAIIIQSFIRGYRDRKQQYSIQRSAFDRCATLSQSGGAFPIANGPNLTLLVRQLLFFYKQNEDSKRLIWLYQNLIKHSSLFVKQLDGSERLTCLFQIKRLMSLCCRLLQNCNDDSLNVALPMRMLEVFSSENTYLPVLQDASYVVSVIEQILHYMIHNGYYRSLYLLINSKLPSSIEYSDLSRVPIAKILLENVLKPLHFTYNSCPEGARQQVFTAFTEEFLAAPFTDQIFHFIIPALADAQTVFPYEPFLNALLLIESRCSRKSGGAPWLFYFVLTVGENYLGALSEEGLLVYLRVLQTFLSQLPVSPASASCHDSASDSEEESEEADKPSSPEDGRLSVSYITEECLKKLDTKQQTNTLLNLVWRDSASEEVFTTMASVCHTLMVQHRMMVPKVRLLYSLAFNARFLRHLWFLISSMSTRMITGSMVPLLQVISRGSPMSFEDSSRIIPLFYLFSSLFSHSLISIHDNEFFGDPIEVVGQRQSSMMPFTLEELIMLSRCLRDACLGIIKLAYPETKPEVREEYITAFQSIGVTTSSEMQQCIQMEQKRWIQLFKVITNLVKMLKSRDTRRNFCPPNHWLSEQEDIKADKVTQLYVPASRHVWRFRRMGRIGPLQSTLDVGLESPPLSVSEERQLAVLTELPFVVPFEERVKIFQRLIYADKQEVQGDGPFLDGINVTIRRNYIYEDAYDKLSPENEPDLKKRIRVHLLNAHGLDEAGIDGGGIFREFLNELLKSGFNPNQGFFKTTNEGLLYPNPAAQMLVGDSFARHYYFLGRMLGKALYENMLVELPFAGFFLSKLLGTSADVDIHHLASLDPEVYKNLLFLKSYEDDVEELGLNFTVVNNDLGEAQVVELKFGGKDIPVTSANRIAYIHLVADYRLNRQIRQHCLAFRQGLANVVSLEWLRMFDQQEIQVLISGAQVPISLEDLKSFTNYSGGYSADHPVIKVFWRVVEGFTDEEKRKLLKFVTSCSRPPLLGFKELYPAFCIHNGGSDLERLPTASTCMNLLKLPEFYDETLLRSKLLYAIECAAGFELS [UBE3C] | -0.181 | 50.3 °C | 50.1 °C | -0.263 | 0.499 | 0.996
MGSSKKHRGEKEAAGTTAAAGTGGATEQPPRHREHKKHKHRSGGSGGSGGERRKRSRERGGERGSGRRGAEAEARSSTHGRERSQAEPSERRVKREKRDDGYEAAASSKTSSGDASSLSIEETNKLRAKLGLKPLEVNAIKKEAGTKEEPVTADVINPMALRQREELREKLAAAKEKRLLNQKLGKIKTLGEDDPWLDDTAAWIERSRQLQKEKDLAEKRAKLLEEMDQEFGVSTLVEEEFGQRRQDLYSARDLQGLTVEHAIDSFREGETMILTLKDKGVLQEEEDVLVNVNLVDKERAEKNVELRKKKPDYLPYAEDESVDDLAQQKPRSILSKYDEELEGERPHSFRLEQGGTADGLRERELEEIRAKLRLQAQSLSTVGPRLASEYLTPEEMVTFKKTKRRVKKIRKKEKEVVVRADDLLPLGDQTQDGDFGSRLRGRGRRRVSEVEEEKEPVPQPLPSDDTRVENMDISDEEEGGAPPPGSPQVLEEDEAELELQKQLEKGRRLRQLQQLQQLRDSGEKVVEIVKKLESRQRGWEEDEDPERKGAIVFNATSEFCRTLGEIPTYGLAGNREEQEELMDFERDEERSANGGSESDGEENIGWSTVNLDEEKQQQDFSASSTTILDEEPIVNRGLAAALLLCQNKGLLETTVQKVARVKAPNKSLPSAVYCIEDKMAIDDKYSRREEYRGFTQDFKEKDGYKPDVKIEYVDETGRKLTPKEAFRQLSHRFHGKGSGKMKTERRMKKLDEEALLKKMSSSDTPLGTVALLQEKQKAQKTPYIVLSGSGKSMNANTITK [SART1] | -0.654 | 50.8 °C | 51.6 °C | 0.448 | 0.893 | 3.51
MPAVASVPKELYLSSSLKDLNKKTEVKPEKISTKSYVHSALKIFKTAEECRLDRDEERAYVLYMKYVTVYNLIKKRPDFKQQQDYFHSILGPGNIKKAVEEAERLSESLKLRYEEAEVRKKLEEKDRQEEAQRLQQKRQETGREDGGTLAKGSLENVLDSKDKTQKSNGEKNEKCETKEKGAITAKELYTMMTDKNISLIIMDARRMQDYQDSCILHSLSVPEEAISPGVTASWIEAHLPDDSKDTWKKRGNVEYVVLLDWFSSAKDLQIGTTLRSLKDALFKWESKTVLRNEPLVLEGGYENWLLCYPQYTTNAKVTPPPRRQNEEVSISLDFTYPSLEESIPSKPAAQTPPASIEVDENIELISGQNERMGPLNISTPVEPVAASKSDVSPIIQPVPSIKNVPQIDRTKKPAVKLPEEHRIKSESTNHEQQSPQSGKVIPDRSTKPVVFSPTLMLTDEEKARIHAETALLMEKNKQEKELRERQQEEQKEKLRKEEQEQKAKKKQEAEENEITEKQQKAKEEMEKKESEQAKKEDKETSAKRGKEITGVKRQSKSEHETSDAKKSVEDRGKRCPTPEIQKKSTGDVPHTSVTGDSGSGKPFKIKGQPESGILRTGTFREDTDDTERNKAQREPLTRARSEEMGRIVPGLPSGWAKFLDPITGTFRYYHSPTNTVHMYPPEMAPSSAPPSTPPTHKAKPQIPAERDREPSKLKRSYSSPDITQAIQEEEKRKPTVTPTVNRENKPTCYPKAEISRLSASQIRNLNPVFGGSGPALTGLRNLGNTCYMNSILQCLCNAPHLADYFNRNCYQDDINRSNLLGHKGEVAEEFGIIMKALWTGQYRYISPKDFKITIGKINDQFAGYSQQDSQELLLFLMDGLHEDLNKADNRKRYKEENNDHLDDFKAAEHAWQKHKQLNESIIVALFQGQFKSTVQCLTCHKKSRTFEAFMYLSLPLASTSKCTLQDCLRLFSKEEKLTDNNRFYCSHCRARRDSLKKIEIWKLPPVLLVHLKRFSYDGRWKQKLQTSVDFPLENLDLSQYVIGPKNNLKKYNLFSVSNHYGGLDGGHYTAYCKNAARQRWFKFDDHEVSDISVSSVKSSAAYILFYTSLGPRVTDVAT [USP8] | -0.121 | 49.2 °C | 49.3 °C | -0.0263 | -0.07 | -0.00341
MALSCTLNRYLLLMAQEHLEFRLPEIKSLLLLFGGQFASSQETYGKSPFWILSIPSEDIARNLMKRTVCAKSIFELWGHGQSPEELYSSLKNYPVEKMVPFLHSDSTYKIKIHTFNKTLTQEEKIKRIDALEFLPFEGKVNLKKPQHVFSVLEDYGLDPNCIPENPHNIYFGRWIADGQRELIESYSVKKRHFIGNTSMDAGLSFIMANHGKVKENDIVFDPFVGTGGLLIACAHFGAYVYGTDIDYNTVHGLGKATRKNQKWRGPDENIRANLRQYGLEKYYLDVLVSDASKPSWRKGTYFDAIITDPPYGIRESTRRTGSQKEIPKGIEKWEKCPESHVPVSLSYHLSDMFLDLLNFAAETLVLGGRLVYWLPVYTPEYTEEMVPWHPCLELVSNCEQKLSSHTSRRLITMEKVKKFENRDQYSHLLSDHFLPYQGHNSFREKYFSGVTKRIAKEEKSTQE [TRMT11] | 0.171 | 54.4 °C | 53.5 °C | -0.155 | 0.848 | -0.0136
MAHQTGIHATEELKEFFAKARAGSVRLIKVVIEDEQLVLGASQEPVGRWDQDYDRAVLPLLDAQQPCYLLYRLDSQNAQGFEWLFLAWSPDNSPVRLKMLYAATRATVKKEFGGGHIKDELFGTVKDDLSFAGYQKHLSSCAAPAPLTSAERELQQIRINEVKTEISVESKHQTLQGLAFPLQPEAQRALQQLKQKMVNYIQMKLDLERETIELVHTEPTDVAQLPSRVPRDAARYHFFLYKHTHEGDPLESVVFIYSMPGYKCSIKERMLYSSCKSRLLDSVEQDFHLEIAKKIEIGDGAELTAEFLYDEVHPKQHAFKQAFAKPKGPGGKRGHKRLIRGPGENGDDS [TWF2] | 0.275 | 53.6 °C | 53 °C | -0.23 | -0.101 | -1.11
MDSEAFQSARDFLDMNFQSLAMKHMDLKQMELDTAAAKVDELTKQLESLWSDSPAPPGPQAGPPSRPPRYSSSSIPEPFGSRGSPRKAATDGADTPFGRSESAPTLHPYSPLSPKGRPSSPRTPLYLQPDAYGSLDRATSPRPRAFDGAGSSLGRAPSPRPGPGPLRQQGPPTPFDFLGRAGSPRGSPLAEGPQAFFPERGPSPRPPATAYDAPASAFGSSLLGSGGSAFAPPLRAQDDLTLRRRPPKAWNESDLDVAYEKKPSQTASYERLDVFARPASPSLQLLPWRESSLDGLGGTGKDNLTSATLPRNYKVSPLASDRRSDAGSYRRSLGSAGPSGTLPRSWQPVSRIPMPPSSPQPRGAPRQRPIPLSMIFKLQNAFWEHGASRAMLPGSPLFTRAPPPKLQPQPQPQPQPQSQPQPQLPPQPQTQPQTPTPAPQHPQQTWPPVNEGPPKPPTELEPEPEIEGLLTPVLEAGDVDEGPVARPLSPTRLQPALPPEAQSVPELEEVARVLAEIPRPLKRRGSMEQAPAVALPPTHKKQYQQIISRLFHRHGGPGPGGPEPELSPITEGSEARAGPPAPAPPAPIPPPAPSQSSPPEQPQSMEMRSVLRKAGSPRKARRARLNPLVLLLDAALTGELEVVQQAVKEMNDPSQPNEEGITALHNAICGANYSIVDFLITAGANVNSPDSHGWTPLHCAASCNDTVICMALVQHGAAIFATTLSDGATAFEKCDPYREGYADCATYLADVEQSMGLMNSGAVYALWDYSAEFGDELSFREGESVTVLRRDGPEETDWWWAALHGQEGYVPRNYFGLFPRVKPQRSKV [PPP1R13L] | 0.09 | 51.2 °C | 51.5 °C | 0.0483 | -0.761 | 0.0817
MQANGAGGGGGGGGGGGGGGGGGGGQGQTPELACLSAQNGESSPSSSSSAGDLAHANGLLPSAPSAASNNSNSLNVNNGVPGGAAAASSATVAAASATTAASSSLATPELGSSLKKKKRLSQSDEDVIRLIGQHLNGLGLNQTVDLLMQESGCRLEHPSATKFRNHVMEGDWDKAENDLNELKPLVHSPHAIVVRGALEISQTLLGIIVRMKFLLLQQKYLEYLEDGKVLEALQVLRCELTPLKYNTERIHVLSGYLMCSHAEDLRAKAEWEGKGTASRSKLLDKLQTYLPPSVMLPPRRLQTLLRQAVELQRDRCLYHNTKLDNNLDSVSLLIDHVCSRRQFPCYTQQILTEHCNEVWFCKFSNDGTKLATGSKDTTVIIWQVDPDTHLLKLLKTLEGHAYGVSYIAWSPDDNYLVACGPDDCSELWLWNVQTGELRTKMSQSHEDSLTSVAWNPDGKRFVTGGQRGQFYQCDLDGNLLDSWEGVRVQCLWCLSDGKTVLASDTHQRIRGYNFEDLTDRNIVQEDHPIMSFTISKNGRLALLNVATQGVHLWDLQDRVLVRKYQGVTQGFYTIHSCFGGHNEDFIASGSEDHKVYIWHKRSELPIAELTGHTRTVNCVSWNPQIPSMMASASDDGTVRIWGPAPFIDHQNIEEECSSMDS [WDR26] | -0.108 | 52.1 °C | 50.7 °C | -0.151 | 0.266 | 0.763
MGPLSARLLMQRGRPKSDRLGKIRSLDLSGLELLSEHLDPKLLCRLTQLQELDLSNNHLETLPDNLGLSHLRVLRCANNQLGDVTALCQFPKLEELSLEGNPFLTVNDNLKVSFLLPTLRKVNGKDASSTYSQVENLNRELTSRVTAHWEKFMATLGPEEEAEKAQADFVKSAVRDVRYGPESLSEFTQWRVRMISEELVAASRTQVQKANSPEKPPEAGAAHKPRARLAALKRPDDVPLSLSPSKRACASPSAQVEGSPVAGSDGSQPAVKLEPLHFLQCHSKNNSPQDLETQLWACAFEPAWEEGATSQTVATCGGEAVCVIDCQTGIVLHKYKAPGEEFFSVAWTALMVVTQAGHKKRWSVLAAAGLRGLVRLLHVRAGFCCGVIRAHKKAIATLCFSPAHETHLFTASYDKRIILWDIGVPNQDYEFQASQLLTLDTTSIPLRLCPVASCPDARLLAGCEGGCCCWDVRLDQPQKRRVCEVEFVFSEGSEASGRRVDGLAFVNEDIVASKGSGLGTICLWSWRQTWGGRGSQSTVAVVVLARLQWSSTELAYFSLSACPDKGIVLCGDEEGNVWLYDVSNILKQPPLLPAALQAPTQILKWPQPWALGQVVTKTMVNTVVANASFTYLTALTDSNIVAIWGRM [LRWD1] | -0.185 | 48 °C | 49.1 °C | -0.0674 | 1.14 | 1.7

Reference: the supplement of paper PMC5998384
